Measurements as given in patent publication US20260242735A1 (UNIVERSIT T BASEL, published 2026).

B1: Refmab #3 (antibody, V domains shown)
VH: QVQLVQSGAEVKKPGSSVKVSCKASGYTFTDYNMHWVRQAPGQGLEWIGYIYPYNGGTGYNQKFKSKATITADESTNTAYMELSSLRSEDTAVYYCARGRPAMDYWGQGTLVTVSS
VL: DIQMTQSPSSLSASVGDRVTITCRASESVDNYGISFMNWFQQKPGKAPKLLIYAASNQGSGVPSRFSGSGSGTDFTLTISSLQPDDFATYYCQQSKEVPWTFGQGTKVEIK
notes: The alanine scan used IgG or Fab
B2: Refmab #4 (antibody, V domains shown)
VH: QVQLVQSGAEVKKPGESVKVSCKASGYTFTNYGMNWVKQAPGQGLEWMGWINTYTGEPTYADKFQGRVTMTTDTSTSTAYMEIRNLGGDDTAVYYCARWSWSDGYYVYFDYWGQGTSVTVSS
VL: DIVMTQSPDSLTVSLGERTTINCKSSQSVLDSSTNKNSLAWYQQKPGQPPKLLLSWASTRESGIPDRFSGSGSGTDFTLTIDSPQPEDSATYYCQQSAHFPITFGQGTRLEIK
notes: as for B1

Key:
Assay in all cases: alanine scan, flow cytometry, HEK293-T;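 further: antibody binding to each alanine-substituted CD33 mutant expressed transiently in HEK293-T, read as fluorescence minus background, mean of duplicates, relative to wild-type CD33 set as 100%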
human CD33 G260A = human CD33 G260A (human, UniProt P20138 18-364)
human CD33 G263A = human CD33 G263A (human, UniProt P20138 18-364)
human CD33 G264A = human CD33 G264A (human, UniProt P20138 18-364)
human CD33 V267A = human CD33 V267A (human, UniProt P20138 18-364)
human CD33 L270A = human CD33 L270A (human, UniProt P20138 18-364)
human CD33 A272S = human CD33 A272S (human, UniProt P20138 18-364)
human CD33 L273A = human CD33 L273A (human, UniProt P20138 18-364)
human CD33 L275A = human CD33 L275A (human, UniProt P20138 18-364)
human CD33 L277A = human CD33 L277A (human, UniProt P20138 18-364)
human CD33 F280A = human CD33 F280A (human, UniProt P20138 18-364)
human CD33 I281A = human CD33 I281A (human, UniProt P20138 18-364)
human CD33 D298A = human CD33 D298A (human, UniProt P20138 18-364)
human CD33 H310A = human CD33 H310A (human, UniProt P20138 18-364)
human CD33 Q311A = human CD33 Q311A (human, UniProt P20138 18-364)
human CD33 S314A = human CD33 S314A (human, UniProt P20138 18-364)
human CD33 D246A = human CD33 D246A (human, UniProt P20138 18-364)
Chain of human CD33 D246A (P20138 18-364 D246A limits assumed): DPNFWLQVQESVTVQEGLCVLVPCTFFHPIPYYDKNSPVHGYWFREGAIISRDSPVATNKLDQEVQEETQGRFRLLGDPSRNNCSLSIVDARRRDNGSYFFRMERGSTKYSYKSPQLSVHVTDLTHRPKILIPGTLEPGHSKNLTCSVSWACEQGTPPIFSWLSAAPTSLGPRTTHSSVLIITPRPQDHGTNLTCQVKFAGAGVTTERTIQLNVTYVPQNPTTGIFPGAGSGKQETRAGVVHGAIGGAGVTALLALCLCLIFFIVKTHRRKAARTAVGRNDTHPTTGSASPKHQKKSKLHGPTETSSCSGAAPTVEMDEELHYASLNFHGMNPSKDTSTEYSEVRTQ

Chain of human CD33 A272S (P20138 18-364 A272S limits assumed): as the sequence (P20138 18-364 D246A limits assumed) above, with A229D, A255S counted along it
Chain of human CD33 D298A (P20138 18-364 D298A limits assumed): as the sequence (P20138 18-364 D246A limits assumed) above, with A229D, D281A counted along it
Chain of human CD33 L277A (P20138 18-364 L277A limits assumed): as the sequence (P20138 18-364 D246A limits assumed) above, with A229D, L260A counted along it
Chain of human CD33 G264A (P20138 18-364 G264A limits assumed): as the sequence (P20138 18-364 D246A limits assumed) above, with A229D, G247A counted along it
Chain of human CD33 V267A (P20138 18-364 V267A limits assumed): as the sequence (P20138 18-364 D246A limits assumed) above, with A229D, V250A counted along it
Chain of human CD33 G260A (P20138 18-364 G260A limits assumed): as the sequence (P20138 18-364 D246A limits assumed) above, with A229D, G243A counted along it
Chain of human CD33 G263A (P20138 18-364 G263A limits assumed): as the sequence (P20138 18-364 D246A limits assumed) above, with A229D, G246A counted along it
Chain of human CD33 I281A (P20138 18-364 I281A limits assumed): as the sequence (P20138 18-364 D246A limits assumed) above, with A229D, I264A counted along it
Chain of human CD33 S314A (P20138 18-364 S314A limits assumed): as the sequence (P20138 18-364 D246A limits assumed) above, with A229D, S297A counted along it
Chain of human CD33 L275A (P20138 18-364 L275A limits assumed): as the sequence (P20138 18-364 D246A limits assumed) above, with A229D, L258A counted along it
Chain of human CD33 L270A (P20138 18-364 L270A limits assumed): as the sequence (P20138 18-364 D246A limits assumed) above, with A229D, L253A counted along it
Chain of human CD33 H310A (P20138 18-364 H310A limits assumed): as the sequence (P20138 18-364 D246A limits assumed) above, with A229D, H293A counted along it
Chain of human CD33 Q311A (P20138 18-364 Q311A limits assumed): as the sequence (P20138 18-364 D246A limits assumed) above, with A229D, Q294A counted along it
Chain of human CD33 L273A (P20138 18-364 L273A limits assumed): as the sequence (P20138 18-364 D246A limits assumed) above, with A229D, L256A counted along it
Chain of human CD33 F280A (P20138 18-364 F280A limits assumed): as the sequence (P20138 18-364 D246A limits assumed) above, with A229D, F263A counted along it

| Binder | Mean % WT Binding (human CD33 G260A) | Mean % WT Binding (human CD33 G263A) | Mean % WT Binding (human CD33 G264A) | Mean % WT Binding (human CD33 V267A) | Mean % WT Binding (human CD33 L270A) | Mean % WT Binding (human CD33 A272S) | Mean % WT Binding (human CD33 L273A) | Mean % WT Binding (human CD33 L275A) | Mean % WT Binding (human CD33 L277A) | Mean % WT Binding (human CD33 F280A) | Mean % WT Binding (human CD33 I281A) | Mean % WT Binding (human CD33 D298A) | Mean % WT Binding (human CD33 H310A) | Mean % WT Binding (human CD33 Q311A) | Mean % WT Binding (human CD33 S314A) | Mean % WT Binding (human CD33 D246A) |
| --- | --- | --- | --- | --- | --- | --- | --- | --- | --- | --- | --- | --- | --- | --- | --- | --- |
| B1 | 140 % WT binding | 116 % WT binding | 89 % WT binding | 106 % WT binding | 125 % WT binding | 105 % WT binding | 125 % WT binding | 123 % WT binding | 81.9 % WT binding | 99 % WT binding | 91 % WT binding | 80.1 % WT binding | 101 % WT binding | 124 % WT binding | 139 % WT binding | 115 % WT binding |
| B2 | 106 % WT binding | 99.9 % WT binding | 89.9 % WT binding | 116 % WT binding | 97.3 % WT binding | 107 % WT binding | 115 % WT binding | 99.3 % WT binding | 92.2 % WT binding | 92.3 % WT binding | 122 % WT binding | 83.9 % WT binding | 94.3 % WT binding | 102 % WT binding | 95.5 % WT binding | 104 % WT binding |
